Among the data in patent US20110033476A1 (published 2011) are EC50 values, retold here.

For the experiment, the target named is 23 amino acid synthetic peptide corresponding to the M2e domain of A/Fort Worth/1/50 (H1N1) (Influenza A virus A/Fort Worth/1/50 (H1N1)). The experiment in a line: ELISA, 23mer M2e peptide coated at 1 µg/mL (FIG. 14b). (ELISA stands for enzyme-linked immunosorbent assay.)

For orientation: EC50 means the concentration that produces a half-maximal response. A higher EC50 goes with lower potency in that assay.

Consider “chimeric mouse V-region/human IgG1 kappa 14C2 antibody”, for which the EC50 was determined as 0.01 µg/mL.
